For assay [1], the target named is biotinylated equine IL31 (equine). The assay can be described thus: BLI, biotinylated equine IL31 immobilized to the sensor; preliminary measurement; lower end of the range; preliminary measurement. A general note: In BLI a coated tip is dipped into the sample, and binding shifts an interference pattern.
For assay [2] the target is unchanged. The assay can be described thus: BLI, biotinylated equine IL31 immobilized to the sensor; preliminary measurement; upper end of the range; preliminary measurement.
For assay [3], the target named is T1, canine IL31 with C-terminal polyHis tag (canine, biotinylated at primary amine groups (NHS-LC-Biotin) or at glycan groups (Biotin-LC-Hydrazide)).
T1 construct: also called biotinylated canine IL31; canine IL31 (amine-conjugated-biotin); not shown: C-terminal poly-His tag
T1 chain: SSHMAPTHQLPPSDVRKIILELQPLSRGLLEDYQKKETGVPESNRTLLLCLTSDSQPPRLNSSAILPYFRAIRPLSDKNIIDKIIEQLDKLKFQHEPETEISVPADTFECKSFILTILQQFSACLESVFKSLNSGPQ
Briefly: BLI (Octet), canine IL31 (glycan-conjugated-biotin) on streptavidin tips, antibody at 100 nM, 2:1 model; canine IL31 (glycan-conjugated-biotin). On the procedure: (§1) The binding analysis was performed using a biosensor Octet as follows. Briefly, canine IL31 was biotinylated at primary amine groups using EZ-Link™ NHS-LC-Biotin (Thermo Scientific, Catalog No. 21336) or at glycan groups using EZ-Link™ Biotin-LC-Hydrazide (ThermoFisher Scientific, Catalog No. 21340) according to the manufacturer's instructions. The free unreacted biotin was removed from biotinylated IL31 by extensive dialysis. Biotinylated canine IL31 was captured on streptavidin sensor tips. The association of four different concentrations (400, 200, 66.6, and 33 nM) of chimeric and caninized M14 antibody and human and canine IL31 (amine-conjugated-biotin) and the association of 100 nM of caninized M14 antibody and canine IL31 (glycan-conjugated-biotin) was monitored for ninety seconds. Dissociation was monitored for 600 seconds. A buffer only blank curve was subtracted to correct for any drift. The data were fit to a 2:1 binding model using ForteBio™ data analysis software to determine the kₒₙ, koff, and the Kd. The buffer for dilutions and all binding steps was: 20 mM phosphate, 150 mM NaCl, pH 7.2.

The target in assay [4] is T1, canine IL31 with C-terminal polyHis tag. Briefly: BLI (Octet), canine IL31 (amine-conjugated-biotin) on streptavidin tips, antibody at 400, 200, 66.6 and 33 nM, 2:1 model; canine IL31 (amine-conjugated-biotin). On the procedure:
as §1

Chain of biotinylated equine IL31 (equine) (chain, as listed by the source limits assumed, form in doubt): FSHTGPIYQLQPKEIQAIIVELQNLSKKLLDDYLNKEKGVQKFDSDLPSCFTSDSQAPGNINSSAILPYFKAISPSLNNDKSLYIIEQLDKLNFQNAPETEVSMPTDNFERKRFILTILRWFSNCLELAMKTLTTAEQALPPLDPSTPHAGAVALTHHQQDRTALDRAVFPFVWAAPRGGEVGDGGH

B1: mouse monoclonal antibody M14 (antibody, V domains shown)
VH: EVQLQESGPSLVKPSQTLSLTCSVTGDSITSGYWNWIRKFPGNKLEYMGYISYSGITDYNPSLKSRISITRDTSKNQYYLQLNSVTTEDTATYYCARYGNYGYAMDYWGQGTSVTVSS
VL: DIVLTQSPASLAVSLGQRATISCRASESVDTYGNSFMHWYQQKSGQSPKLLIYRASNLESGIPARFGGSGSRTDFTLTIDPVEADDVATYYCQQSYEDPWTFGGGTKLEIK
With B1, the values for the Kd in assay [1] and in assay [2] were greater than 10 nM and less than 50 nM, respectively.

B2: caninized M14 IgG-B (antibody, V domains shown)
VH: EVQLVESGPSLVKPGGSLRLTCSVTGDSITSGYWNWIRKFPGNKLEYMGYISYSGITDYNPSLKSRITISRDTSKNQYYLQLNSVTTEDTATYYCARYGNYGYAMDYWGQGTLVTVSS
VL: DIVMTQSPASLSVSLGQRATISCRASESVDTYGNSFMHWYQQKPGQSPKLLIYRASNLESGIPARFGGSGSGTDFTLTIDPVQADDVATYYCQQSYEDPWTFGGGTKLEIKR
notes: canine IgG-B heavy chain and canine light chain constant region; also called caninized M14 antibody
In the case of B2, the figures for the Kd in assay [3] and in assay [4] were less than 1 pM and less than 0.01 nM, respectively. For the same molecule, in assay [3], the koff (in general, the first-order rate constant of dissociation) is less than 1e-07 s⁻¹.

These data come from patent US20200062840A1 (KINDRED BIOSCIENCES, published 2020).
